From publication PMC8417293, “Impact of crowded environments on binding between protein and single-stranded DNA”

B1: dT4 (ssDNA)
DNA: TTTT
B2: dT7 (ssDNA)
DNA: TTTTTTT
B3: dT6 (ssDNA)
DNA: TTTTTT
B4: dT5 (ssDNA)
DNA: TTTTT

Assays:
Conditions in all cases: protein: recombinant; single strand
[1] = biological target: T1, BsCspB (cold shock protein B) (UniProt P32081 1-67); test: intrinsic Trp fluorescence quenching; 300 g/L PEG1; 20 mM disodium phosphate pH 7.0, no added salt stated; fluorescence titration 298 K (0.5, 2.8 or 4 uM protein; table marks a/b not explained in the material); stopped-flow 288 K (60 or 300 nM protein); NMR 298 or 294.4 K with 5% D2O
T1 sequence (P32081 whole entry): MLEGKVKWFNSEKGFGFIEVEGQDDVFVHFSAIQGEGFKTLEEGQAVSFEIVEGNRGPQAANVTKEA

[2] = biological target: T1, BsCspB (cold shock protein B); test: intrinsic Trp fluorescence quenching; dilute; 20 mM disodium phosphate pH 7.0, no added salt stated; fluorescence titration 298 K (0.5, 2.8 or 4 uM protein; table marks a/b not explained in the material); stopped-flow 288 K (60 or 300 nM protein); NMR 298 or 294.4 K with 5% D2O
[3] = biological target: T1, BsCspB (cold shock protein B); test: intrinsic Trp fluorescence quenching; 100 g/L PEG8; 20 mM disodium phosphate pH 7.0, no added salt stated; fluorescence titration 298 K (0.5, 2.8 or 4 uM protein; table marks a/b not explained in the material); stopped-flow 288 K (60 or 300 nM protein); NMR 298 or 294.4 K with 5% D2O
[4] = biological target: T1, BsCspB (cold shock protein B); test: intrinsic Trp fluorescence quenching; dilute (series a); 20 mM disodium phosphate pH 7.0, no added salt stated; fluorescence titration 298 K (0.5, 2.8 or 4 uM protein; table marks a/b not explained in the material); stopped-flow 288 K (60 or 300 nM protein); NMR 298 or 294.4 K with 5% D2O
[5] = biological target: T1, BsCspB (cold shock protein B); test: intrinsic Trp fluorescence quenching; 200 g/L PEG8; 20 mM disodium phosphate pH 7.0, no added salt stated; fluorescence titration 298 K (0.5, 2.8 or 4 uM protein; table marks a/b not explained in the material); stopped-flow 288 K (60 or 300 nM protein); NMR 298 or 294.4 K with 5% D2O
[6] = biological target: T1, BsCspB (cold shock protein B); test: intrinsic Trp fluorescence quenching; 300 g/L Dex20 (series a); 20 mM disodium phosphate pH 7.0, no added salt stated; fluorescence titration 298 K (0.5, 2.8 or 4 uM protein; table marks a/b not explained in the material); stopped-flow 288 K (60 or 300 nM protein); NMR 298 or 294.4 K with 5% D2O
[7] = biological target: T1, BsCspB (cold shock protein B); test: intrinsic Trp fluorescence quenching; 100 g/L PEG1 (series b); 20 mM disodium phosphate pH 7.0, no added salt stated; fluorescence titration 298 K (0.5, 2.8 or 4 uM protein; table marks a/b not explained in the material); stopped-flow 288 K (60 or 300 nM protein); NMR 298 or 294.4 K with 5% D2O
[8] = biological target: T1, BsCspB (cold shock protein B); test: intrinsic Trp fluorescence quenching; 300 g/L Dex20 (series b); 20 mM disodium phosphate pH 7.0, no added salt stated; fluorescence titration 298 K (0.5, 2.8 or 4 uM protein; table marks a/b not explained in the material); stopped-flow 288 K (60 or 300 nM protein); NMR 298 or 294.4 K with 5% D2O
[9] = biological target: T1, BsCspB (cold shock protein B); test: intrinsic Trp fluorescence quenching; 300 g/L PEG1 (series a); 20 mM disodium phosphate pH 7.0, no added salt stated; fluorescence titration 298 K (0.5, 2.8 or 4 uM protein; table marks a/b not explained in the material); stopped-flow 288 K (60 or 300 nM protein); NMR 298 or 294.4 K with 5% D2O
[10] = biological target: T1, BsCspB (cold shock protein B); test: intrinsic Trp fluorescence quenching; 200 g/L PEG1; 20 mM disodium phosphate pH 7.0, no added salt stated; fluorescence titration 298 K (0.5, 2.8 or 4 uM protein; table marks a/b not explained in the material); stopped-flow 288 K (60 or 300 nM protein); NMR 298 or 294.4 K with 5% D2O
[11] = biological target: T1, BsCspB (cold shock protein B); test: intrinsic Trp fluorescence quenching; 300 g/L glucose; 20 mM disodium phosphate pH 7.0, no added salt stated; fluorescence titration 298 K (0.5, 2.8 or 4 uM protein; table marks a/b not explained in the material); stopped-flow 288 K (60 or 300 nM protein); NMR 298 or 294.4 K with 5% D2O
[12] = biological target: T1, BsCspB (cold shock protein B); test: intrinsic Trp fluorescence quenching; 200 g/L Dex20 (series b); 20 mM disodium phosphate pH 7.0, no added salt stated; fluorescence titration 298 K (0.5, 2.8 or 4 uM protein; table marks a/b not explained in the material); stopped-flow 288 K (60 or 300 nM protein); NMR 298 or 294.4 K with 5% D2O
[13] = biological target: T1, BsCspB (cold shock protein B); test: intrinsic Trp fluorescence quenching; 300 g/L ethylene glycol; 20 mM disodium phosphate pH 7.0, no added salt stated; fluorescence titration 298 K (0.5, 2.8 or 4 uM protein; table marks a/b not explained in the material); stopped-flow 288 K (60 or 300 nM protein); NMR 298 or 294.4 K with 5% D2O
[14] = biological target: T1, BsCspB (cold shock protein B); test: intrinsic Trp fluorescence quenching; dilute (series b); 20 mM disodium phosphate pH 7.0, no added salt stated; fluorescence titration 298 K (0.5, 2.8 or 4 uM protein; table marks a/b not explained in the material); stopped-flow 288 K (60 or 300 nM protein); NMR 298 or 294.4 K with 5% D2O
[15] = biological target: T1, BsCspB (cold shock protein B); test: intrinsic Trp fluorescence quenching; 100 g/L Dex20 (series b); 20 mM disodium phosphate pH 7.0, no added salt stated; fluorescence titration 298 K (0.5, 2.8 or 4 uM protein; table marks a/b not explained in the material); stopped-flow 288 K (60 or 300 nM protein); NMR 298 or 294.4 K with 5% D2O

Binder	Kd [1] [nM]	Kd [2] [nM]	Kd [3] [nM]	Kd [4] [nM]	Kd [5] [nM]	Kd [6] [nM]	Kd [7] [nM]	Kd [8] [nM]	Kd [9] [nM]	Kd [10] [nM]	Kd [11] [nM]	Kd [12] [nM]	Kd [13] [nM]	Kd [14] [nM]	Kd [15] [nM]
B1	17000 ± 1100	6100 ± 300	–	–	–	–	–	–	–	–	–	–	–	–	–
B2	570 ± 30	15 ± 5	14 ± 7	7 ± 3	90 ± 20	5 ± 3	10 ± 10	6 ± 3	170 ± 5	75 ± 15	–	–	–	–	–
B3	580 ± 10	80 ± 10	–	30 ± 10	–	–	–	–	415 ± 5	–	–	–	–	–	–
B4	3800 ± 100	750 ± 50	–	–	–	–	–	350 ± 50	–	–	1310 ± 20	680 ± 20	5100 ± 400	780 ± 10	710 ± 20
